We go through nine molecules from PMC11446282.

First the molecules themselves.
B1: AMOTL2 H13: AMOTL2, H13 to alanine (protein, UniProt Q9Y2J4 1-779, looked up, variant H13A)
Angiomotin-like protein 2: MRTLEDSSGTVLARLIQEQLRYGNLTETRTLLAIQQQALRGGAGTGGTGSPQASLEILAPEDSQVLQQATRQEPQGQEHQGGENHLAENTLYRLCPQPSKGEELPTYEEAKAHSQYYAAQQAGTRPHAGDRDPRGAPGGSRRQDEALRELRHGHVRSLSERLLQLSLERNGARAPSHMSSSHSFPQLARNQQGPPLRGPPAEGPESRGPPPQYPHVVLAHETTTAVTDPRYRARGSPHFQHAEVRILQAQVPPVFLQQQQQYQYLQQSQEHPPPPHPAALGHGPLSSLSPPAVEGPVSAQASSATSGSAHLAQMEAVLRENARLQRDNERLQRELESSAEKAGRIEKLESEIQRLSEAHESLTRASSKREALEKTMRNKMDSEMRRLQDFNRDLRERLESANRRLASKTQEAQAGSQDMVAKLLAQSYEQQQEQEKLEREMALLRGAIEDQRRRAELLEQALGNAQGRAARAEEELRKKQAYVEKVERLQQALGQLQAACEKREQLELRLRTRLEQELKALRAQQRQAGAPGGSSGSGGSPELSALRLSEQLREKEEQILALEADMTKWEQKYLEERAMRQFAMDAAATAAAQRDTTLIRHSPQPSPSSSFNEGLLTGGHRHQEMESRLKVLHAQILEKDAVIKVLQQRSRRDPGKAIQGSLRPAKSVPSVFAAAAAGTQGWQGLSSSERQTADAPARLTTDRAPTEEPVVTAPPAAHAKHGSRDGSTQTEGPPDSTSTCLPPEPDSLLGCSSSQRAASLDSVATSRVQDLSDMVEILI
B2: EYA3 T88: EYA3, T88 to alanine (protein, UniProt Q99504 1-573, looked up, variant T88A)
Protein phosphatase EYA3: MEEEQDLPEQPVKKAKMQESGEQTISQVSNPDVSDQKPETSSLASNLPMSEEIMTCTDYIPRSSNDYTSQMYSAKPYAHILSVPVSEAAYPGQTQYQTLQQTQPYAVYPQATQTYGLPPFGALWPGMKPESGLIQTPSPSQHSVLTCTTGLTTSQPSPAHYSYPIQASSTNASLISTSSTIANIPAAAVASISNQDYPTYTILGQNQYQACYPSSSFGVTGQTNSDAESTTLAATTYQSEKPSVMAPAPAAQRLSSGDPSTSPSLSQTTPSKDTDDQSRKNMTSKNRGKRKADATSSQDSELERVFLWDLDETIIIFHSLLTGSYAQKYGKDPTVVIGSGLTMEEMIFEVADTHLFFNDLEECDQVHVEDVASDDNGQDLSNYSFSTDGFSGSGGSGSHGSSVGVQGGVDWMRKLAFRYRKVREIYDKHKSNVGGLLSPQRKEALQRLRAEIEVLTDSWLGTALKSLLLIQSRKNCVNVLITTTQLVPALAKVLLYGLGEIFPIENIYSATKIGKESCFERIVSRFGKKVTYVVIGDGRDEEIAAKQHNMPFWRITNHGDLVSLHQALELDFL
B3: EYA3 K75: EYA3, K75 to alanine (protein, UniProt Q99504 1-573, looked up, variant K75A)
Protein phosphatase EYA3: MEEEQDLPEQPVKKAKMQESGEQTISQVSNPDVSDQKPETSSLASNLPMSEEIMTCTDYIPRSSNDYTSQMYSAAPYAHILSVPVSETAYPGQTQYQTLQQTQPYAVYPQATQTYGLPPFGALWPGMKPESGLIQTPSPSQHSVLTCTTGLTTSQPSPAHYSYPIQASSTNASLISTSSTIANIPAAAVASISNQDYPTYTILGQNQYQACYPSSSFGVTGQTNSDAESTTLAATTYQSEKPSVMAPAPAAQRLSSGDPSTSPSLSQTTPSKDTDDQSRKNMTSKNRGKRKADATSSQDSELERVFLWDLDETIIIFHSLLTGSYAQKYGKDPTVVIGSGLTMEEMIFEVADTHLFFNDLEECDQVHVEDVASDDNGQDLSNYSFSTDGFSGSGGSGSHGSSVGVQGGVDWMRKLAFRYRKVREIYDKHKSNVGGLLSPQRKEALQRLRAEIEVLTDSWLGTALKSLLLIQSRKNCVNVLITTTQLVPALAKVLLYGLGEIFPIENIYSATKIGKESCFERIVSRFGKKVTYVVIGDGRDEEIAAKQHNMPFWRITNHGDLVSLHQALELDFL
B4: EYA3 Y77: EYA3, Y77 to alanine (protein, UniProt Q99504 1-573, looked up, variant Y77A)
Protein phosphatase EYA3: MEEEQDLPEQPVKKAKMQESGEQTISQVSNPDVSDQKPETSSLASNLPMSEEIMTCTDYIPRSSNDYTSQMYSAKPAAHILSVPVSETAYPGQTQYQTLQQTQPYAVYPQATQTYGLPPFGALWPGMKPESGLIQTPSPSQHSVLTCTTGLTTSQPSPAHYSYPIQASSTNASLISTSSTIANIPAAAVASISNQDYPTYTILGQNQYQACYPSSSFGVTGQTNSDAESTTLAATTYQSEKPSVMAPAPAAQRLSSGDPSTSPSLSQTTPSKDTDDQSRKNMTSKNRGKRKADATSSQDSELERVFLWDLDETIIIFHSLLTGSYAQKYGKDPTVVIGSGLTMEEMIFEVADTHLFFNDLEECDQVHVEDVASDDNGQDLSNYSFSTDGFSGSGGSGSHGSSVGVQGGVDWMRKLAFRYRKVREIYDKHKSNVGGLLSPQRKEALQRLRAEIEVLTDSWLGTALKSLLLIQSRKNCVNVLITTTQLVPALAKVLLYGLGEIFPIENIYSATKIGKESCFERIVSRFGKKVTYVVIGDGRDEEIAAKQHNMPFWRITNHGDLVSLHQALELDFL
B5: EYA3 P91: EYA3, P91 to alanine (protein, UniProt Q99504 1-573, looked up, variant P91A)
Protein phosphatase EYA3: MEEEQDLPEQPVKKAKMQESGEQTISQVSNPDVSDQKPETSSLASNLPMSEEIMTCTDYIPRSSNDYTSQMYSAKPYAHILSVPVSETAYAGQTQYQTLQQTQPYAVYPQATQTYGLPPFGALWPGMKPESGLIQTPSPSQHSVLTCTTGLTTSQPSPAHYSYPIQASSTNASLISTSSTIANIPAAAVASISNQDYPTYTILGQNQYQACYPSSSFGVTGQTNSDAESTTLAATTYQSEKPSVMAPAPAAQRLSSGDPSTSPSLSQTTPSKDTDDQSRKNMTSKNRGKRKADATSSQDSELERVFLWDLDETIIIFHSLLTGSYAQKYGKDPTVVIGSGLTMEEMIFEVADTHLFFNDLEECDQVHVEDVASDDNGQDLSNYSFSTDGFSGSGGSGSHGSSVGVQGGVDWMRKLAFRYRKVREIYDKHKSNVGGLLSPQRKEALQRLRAEIEVLTDSWLGTALKSLLLIQSRKNCVNVLITTTQLVPALAKVLLYGLGEIFPIENIYSATKIGKESCFERIVSRFGKKVTYVVIGDGRDEEIAAKQHNMPFWRITNHGDLVSLHQALELDFL
B6: EYA3 Y90: EYA3, Y90 to alanine (protein, UniProt Q99504 1-573, looked up, variant Y90A)
Protein phosphatase EYA3: MEEEQDLPEQPVKKAKMQESGEQTISQVSNPDVSDQKPETSSLASNLPMSEEIMTCTDYIPRSSNDYTSQMYSAKPYAHILSVPVSETAAPGQTQYQTLQQTQPYAVYPQATQTYGLPPFGALWPGMKPESGLIQTPSPSQHSVLTCTTGLTTSQPSPAHYSYPIQASSTNASLISTSSTIANIPAAAVASISNQDYPTYTILGQNQYQACYPSSSFGVTGQTNSDAESTTLAATTYQSEKPSVMAPAPAAQRLSSGDPSTSPSLSQTTPSKDTDDQSRKNMTSKNRGKRKADATSSQDSELERVFLWDLDETIIIFHSLLTGSYAQKYGKDPTVVIGSGLTMEEMIFEVADTHLFFNDLEECDQVHVEDVASDDNGQDLSNYSFSTDGFSGSGGSGSHGSSVGVQGGVDWMRKLAFRYRKVREIYDKHKSNVGGLLSPQRKEALQRLRAEIEVLTDSWLGTALKSLLLIQSRKNCVNVLITTTQLVPALAKVLLYGLGEIFPIENIYSATKIGKESCFERIVSRFGKKVTYVVIGDGRDEEIAAKQHNMPFWRITNHGDLVSLHQALELDFL
B7: EYA3 I80: EYA3, I80 to alanine (protein, UniProt Q99504 1-573, looked up, variant I80A)
Protein phosphatase EYA3: MEEEQDLPEQPVKKAKMQESGEQTISQVSNPDVSDQKPETSSLASNLPMSEEIMTCTDYIPRSSNDYTSQMYSAKPYAHALSVPVSETAYPGQTQYQTLQQTQPYAVYPQATQTYGLPPFGALWPGMKPESGLIQTPSPSQHSVLTCTTGLTTSQPSPAHYSYPIQASSTNASLISTSSTIANIPAAAVASISNQDYPTYTILGQNQYQACYPSSSFGVTGQTNSDAESTTLAATTYQSEKPSVMAPAPAAQRLSSGDPSTSPSLSQTTPSKDTDDQSRKNMTSKNRGKRKADATSSQDSELERVFLWDLDETIIIFHSLLTGSYAQKYGKDPTVVIGSGLTMEEMIFEVADTHLFFNDLEECDQVHVEDVASDDNGQDLSNYSFSTDGFSGSGGSGSHGSSVGVQGGVDWMRKLAFRYRKVREIYDKHKSNVGGLLSPQRKEALQRLRAEIEVLTDSWLGTALKSLLLIQSRKNCVNVLITTTQLVPALAKVLLYGLGEIFPIENIYSATKIGKESCFERIVSRFGKKVTYVVIGDGRDEEIAAKQHNMPFWRITNHGDLVSLHQALELDFL
B8: EYA3 H79: EYA3, H79 to alanine (protein, UniProt Q99504 1-573, looked up, variant H79A)
Protein phosphatase EYA3: MEEEQDLPEQPVKKAKMQESGEQTISQVSNPDVSDQKPETSSLASNLPMSEEIMTCTDYIPRSSNDYTSQMYSAKPYAAILSVPVSETAYPGQTQYQTLQQTQPYAVYPQATQTYGLPPFGALWPGMKPESGLIQTPSPSQHSVLTCTTGLTTSQPSPAHYSYPIQASSTNASLISTSSTIANIPAAAVASISNQDYPTYTILGQNQYQACYPSSSFGVTGQTNSDAESTTLAATTYQSEKPSVMAPAPAAQRLSSGDPSTSPSLSQTTPSKDTDDQSRKNMTSKNRGKRKADATSSQDSELERVFLWDLDETIIIFHSLLTGSYAQKYGKDPTVVIGSGLTMEEMIFEVADTHLFFNDLEECDQVHVEDVASDDNGQDLSNYSFSTDGFSGSGGSGSHGSSVGVQGGVDWMRKLAFRYRKVREIYDKHKSNVGGLLSPQRKEALQRLRAEIEVLTDSWLGTALKSLLLIQSRKNCVNVLITTTQLVPALAKVLLYGLGEIFPIENIYSATKIGKESCFERIVSRFGKKVTYVVIGDGRDEEIAAKQHNMPFWRITNHGDLVSLHQALELDFL
B9: EYA3 L81: EYA3, L81 to alanine (protein, UniProt Q99504 1-573, looked up, variant L81A)
Protein phosphatase EYA3: MEEEQDLPEQPVKKAKMQESGEQTISQVSNPDVSDQKPETSSLASNLPMSEEIMTCTDYIPRSSNDYTSQMYSAKPYAHIASVPVSETAYPGQTQYQTLQQTQPYAVYPQATQTYGLPPFGALWPGMKPESGLIQTPSPSQHSVLTCTTGLTTSQPSPAHYSYPIQASSTNASLISTSSTIANIPAAAVASISNQDYPTYTILGQNQYQACYPSSSFGVTGQTNSDAESTTLAATTYQSEKPSVMAPAPAAQRLSSGDPSTSPSLSQTTPSKDTDDQSRKNMTSKNRGKRKADATSSQDSELERVFLWDLDETIIIFHSLLTGSYAQKYGKDPTVVIGSGLTMEEMIFEVADTHLFFNDLEECDQVHVEDVASDDNGQDLSNYSFSTDGFSGSGGSGSHGSSVGVQGGVDWMRKLAFRYRKVREIYDKHKSNVGGLLSPQRKEALQRLRAEIEVLTDSWLGTALKSLLLIQSRKNCVNVLITTTQLVPALAKVLLYGLGEIFPIENIYSATKIGKESCFERIVSRFGKKVTYVVIGDGRDEEIAAKQHNMPFWRITNHGDLVSLHQALELDFL

The first test concerns PP2A-B55α. The test is described as follows: Single alanine mutational scan, YFP-tagged interactors immunoprecipitated from HeLa cells, Western blot. In kind it is binding, human. Conditions: single alanine mutant of YFP-tagged AMOTL2. Background: Immunoblotting shows a protein as a band on a membrane.
B1 yielded an Experimental % binding of 110%.

Still in this test, the particulars now being: single alanine mutant of YFP-tagged EYA3.
In turn, B2 registered an Experimental % binding of 1%.

As to B3, the Experimental % binding stood at 45%.

Regarding B4, the Experimental % binding worked out at 20%.

In turn, B5 came in with an Experimental % binding of 5%.

B6 returned an Experimental % binding of 5%.

B7 returned an Experimental % binding of 5%.

The molecule B8 gave an Experimental % binding of 10%.

The molecule B9 had an Experimental % binding of 20%.
